Experimental data from the nanobody polyreactivity screen of Harvey et al. (2022).

Test: yeast display, Sf9 membrane polyspecificity reagent, FACS + sequencing; frameworks hold sequencing errors
Outline: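 Nanobodies came from a synthetic yeast display library in Saccharomyces cerevisiae BJ5465, induced with galactose for 36–48 hours and stained for 1 hour at 4 °C with 10% biotinylated, detergent-solubilized Sf9 membrane reagent. Cells were enriched on streptavidin microbeads and then FACS-sorted, with low and high (top ~1%) gates set on anti-HA fluorescence for expression and streptavidin fluorescence for reagent binding. Each polyreactivity label reflects the gate a clone came from. Genes were amplified by colony PCR, sequenced by MiSeq 2 × 250 and filtered by CDR length.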

Row | Sequence | polyreactivity (PSR sort gate)
1 | QVQLVESGGRLVQAGGSLRISRAASGFTFPSYTMGWYRQAPGKERELVAAITSSGGNTYYADSVKGRFTISRDNAKNTVYLQMNSLKPEVTAVYYCATVSVRWPSNDHVRYDYWGQGTQVTVSS | low polyreactivity
2 | QVQHVDSGGGLVQAGGSLRLSCAASGFIFAYNIMGWYRQAPGKERELVADISGTGSTNYADSVKGRFTISRDNAKNTVYLQMNSLKPEDTAVYYCATSGDRLVWGQGTLVTVSS | low polyreactivity
3 | QVQLVESGGGLVQAGGSLRLSCAASGRTFVRYAMGWYRQAPGKERELVAAISWSGGSTYYADSVKGRFTISRDNAKNTVYLQMNSLKPADTAVYYCAAYYRGRNFDYCGQGTQVTVSS | high polyreactivity
4 | QVQLVESGGGLVQAGGSLRLSCAASGFIFGPNAMGWYRQAPGKERELVAAISWIGSSTYYADSVKGRFTISRDNAKNTVYFQMNSLKPQDTAVYYCAADSSERRLMDFDYWGQGTQVTVSS | low polyreactivity
5 | QVQLVESGGGLVQAGGSLRLSCAASGGTIISYAMGWYRQAPRKERELVAAISRGGSSTYYADSVKGRFTISRDNAKNTVYLQMNSLKPEDTAVYYCVQLTRSGPDLDSWGQGTQVTVSS | high polyreactivity
6 | QVQLVESGGGLVQAGGSLRLSCAASGSIFYGYAMGWYRQAPGKERELVAAITWIDGSTYYADSVKGRFTISRDNAKNPVFLQLTSLKPEDTAVYYCAAGGYFYSFYYWGQGTQVTVSS | low polyreactivity
7 | QVQLVESGGGLVQAGGSLRLSCAASGRTFVFYAMGWYRQAPGKERELVAAISSSGGSTYYADSVKGRFTISRDNAKNTVYLQMNSLKPEDTAVYYCNADFYSVGSQYGYWGQGTQVTVSS | high polyreactivity
8 | QVQLVESGGGLVQAGGSLRLSCAASGITFLYYTRGWYRPAPGKERELVASISRSGNTYYADSVKGRFTISRDNAKNTVYLQMNSLKPEDTAVYYCAAKRKSYYSYNFDYWGQGTQVTVSS | high polyreactivity
9 | QVQLVESGGGLVQAGGSLRLSCAASGFIFPYYAMGWYRQAPGKDRELVAAISQSGGSTYYADSVKGRFTISRDYAKNTVYLQMNSLKPEDTEVYYCAKFIPSYHDGDYWGQGTQVTVSS | low polyreactivity
10 | QVQLVESGGGLVQAGGSLRLSCAAYGFIFLENDMGWYRQAPGKERELVASINSGSDTNYADSVKGRFTISRDNAKNTVYLQMNSLKPEDTAVYYCNASYNGVPARYDYWGQGTQVTVSS | low polyreactivity
11 | QVQLVESGGGLVQAGGSLRLSCAASGRTFGFNVMGCSRQAPGKERELVAAISWSGGSTYYADSVKGRFTISRDNAKNTVYLQLNSLKPEDTAVYYCNKRDDHRYGYWGQGTQVTVSS | low polyreactivity
12 | QVQLVESGGGLVQAGGSLRLSCAASGGTLRYYAMGGYRQAPGKERELVAVITSSAGRTYYADSVKGRFTISRDNAKNTVYLQMNSLKPEDTAVYYCPAYDAYSPYQALYDYWGQGTQVTVSS | low polyreactivity
13 | QVQLVESGGGLVQAGGSLRLSCAASGSTIKSNVLGWYRQAPGKERELVAAISSGDSTYYADSVKGRFTISRDNGKNTVYFQLNSLKPVDTAVFYCAARLGLQLVDTPDNDYWGQGTEVTVSS | low polyreactivity
14 | QVQLVESGGGLVQAGGSLRLSCAASGRIFAGYGMGWYRQAPGKERELVAAISSGGSTYYADSVKGRFTISRDNAKNTVYLQMNSLKPEDTAVYYCATDGQSVPDDYYQNVDYDYWGQGTQVTVSS | low polyreactivity
15 | QVQLVESGGGLVQAGGSLRLSCAASGIIFYFYARGWYRQAPGKETELVAANSRGGSTKYADSVKGRFTISRDNAKNTVYLLMYSLKPEDTAFYYCNARVRGVRQGIMDYWGQGTQVSVSS | high polyreactivity
16 | QVQLVESGGGLVQAGGSLRLICAASGSTFKYNAMGWYRQAPGKERELVAAITYSGSSTYYADSVKGRFTISRDNAKNTVYLQMNSLKPEDTAVYYCAAGDLAKYRSYSYYYWGQGTQVTLSS | high polyreactivity
17 | QVHLQEIGGGLVQAGGSLRQSCAASGTISDSGLMGWYRQAPGKERELVAGISSGGITNYADSVKGRFTISRDNAKNTVYLQMNSLKPEDTAVYWGQGTQVTVSS | low polyreactivity
18 | QVQLVESGGGLVQAGGSLRLSCAASGSTFFFYAMGWYRQAPGKERELVAAISRSGVSTYYADSVKGRFTISRDNAKNNVYLQMNSLKPEDTAVYYCAKGGSRDRYGYWGQGTQVTVSS | high polyreactivity
19 | QVQLVESGGGLVQAGGSLRLSCAASGSIFNWYALGWYRQAPGKDRELVAAISKSGGRPYYADSVKGRFTISRDNAKNTVYLQKNSLKPEDTAVFSCNAPRFVGLNVYGYDYWGQGTQVTVSS | high polyreactivity
20 | QVQLVESGGGLVQAGGSLRLSCAASGGTIYRNAMGWYRQAPGKEREMVASITRGGSTTYADSVKGRFTISRDNAKNTVYLQMNCLKPEATAVYYCNAPGQQRYDSWGQGTQVTVSS | high polyreactivity
21 | QVQLVESGGRSVQAGGSRRLSCAASGFSFHYYAMGWYRAAPATERELVAAITSRGTATYYADSVKGRFTISRDTAKITVDLLMNCLKPEDTAVYYCAKASTERMGSWGQGTQVTVSS | high polyreactivity
22 | QVQLVESGGGLVQAGGSLRLSSAASGLIFWAYAMGWYRQAPGKERELVAAINSGGRTYYADSVKGRFTISRDNAKNTVYLQMNSLKPEDTAVYYCAAAGVYSSDYWGQGTQVTVSS | low polyreactivity

Row | Sequence | polyreactivity (PSR sort gate)
23 | QVQLVESGGGLVQAGGSLRLSCAASGRTFYGYAMGWYRQAPGKERELVAVITRDGSTNYADSVKGRFTISRDNAKNTVYLQMNSLKPEDTAVYDCAAERLAYRVRWRYNQEDYWGQGTQVTVSS | high polyreactivity
24 | QVQLLESGGGLVQAGGSLRLSCSASGITFFVYDMGWYRQAPGKERDLVAAITWAGDSTYYADSVKGRFTISRDNAKNTVYLQMNSLKPEDTAVYYCAAQFDVYYSRQPYDYNRSGYWGQGTQVTVSS | low polyreactivity
25 | QDQLVESGGRLVQAVGSLRLSCAASGRIFTDYTMGWYRQAHGKERELVAAISYSGGSTYYADSVKGRFTISRDNAKNTVYLQMNSLKPEDTAVYYCNKDYYVHDGYGYWGQGTQVTVSS | low polyreactivity
26 | QVQLVESGGGLVQAGGSLRLSCAASGFTFRIYTMGWYRQAPGKERELVAAISSRGGSTYYADSVKGRFTISRDNAKNTVDLQMNSLKPEDTAVYYCAASGRVYSSGYDYWGQGTQVTVSS | high polyreactivity
27 | QVHLVESGGGLVQAGGILRLSCAASGRTFLWYAMGWSRQAPGKERELVAAISKRGGSTYYADSVKGRFTISRDKAKNTVYLQMNSLKPVDTAVYYCAAEKRYSSYDYWGQGTQVSVSS | high polyreactivity
28 | QVQLVESGGGLVQAGGSLRLSCAASGITFDLYDMGWYRQAPGKERELVAAITDADSTYYADSVKGRFTISRDNAKNTVYLQMNSLKPEDTAVYYCAADFFYSVYSGHYDYWGQGTQVTVSS | low polyreactivity
29 | QVQLVESGGGLVQAGGSLRLSCAASGRIFFVNAMGWYRQAPGKERELVAAITYSGARTYYADSVKGRFTISRDHAKNTVYLQMNSLKPEDTAVYYCNADQRTASDQLEFDYWGQGTQVTVSS | low polyreactivity
30 | QVQLQESDGGLVQAGGSLRLTCAASGSISPQYYMGWYRQAPGKEREFVAISKGTTTYYADSVKGRLTISRVNANNTVYLQMNSLKPEDTAVYCCAAGRWLQKVHAYWDQGTQVTVSS | low polyreactivity
31 | QVQLEESGGGLVQAGGSLRLSCAASGFTIGVYAMGWYRQAPGKERELVAAISARGGSTYYADSVKGRFTISRDNAKKTVYLQMNSLKPEDTAVFYCAVVLKYVSADQMDYWGQGTQVTVSS | high polyreactivity
32 | QVQLVESGGGLVQAGGSLRLSCAASGNTFYGYAMGWNRQAPGKERELVASITLSGDSTYYADSVKGRFTISRDNEKNTVYLQMNSLKPEDTAVYDCAGVYTYPLGYYHYTYDYWGQGTQVTVSS | low polyreactivity
33 | QVQLVESGGGLVQAGGSLRLSCAASGFIFWYYAMGWYRQAPGKERELVAAISSRGGSTYYADSVKGRFTISRDNAKNTVYLQMNSLKPEDTAVYYCNARYVYYGSGNDYWGQGTQVTVSS | high polyreactivity
34 | QLQLVESGGRLVQAGGSLRLSCAASGRIFYANAMGWYRQAPGKERELVAAISSGGSTYYADSVKGRFTISRDNAKNTVLLQMNSLKPEDTAVYYCAVYTHKKVRPEYDYWGQGTQVTVSS | low polyreactivity
35 | PVQLQESGGGLVQAGGSLRLSCAASGNIFDADIMGWYRQAPGKERELVACIADGGSTNYADSVKGRFTISRDNAKNTVYLQMNSLKPEDTAVYYCAAIAYPYIPNCFDYDSDYFFRGQGTQVTVSS | low polyreactivity
36 | QVQLVESGGGLVQAGGSLRLSCAASGSSFRRYAMGWYRQAPGKERELVATIRSGGSTTYADSVKGRFTISRDNAKNTVYLQMNSLKPEDTAVYFFAAGTKPSYYYWGQGTQVTVSS | low polyreactivity
37 | QVQLVETGGGLVQAGGSLRLSCAASGRIFKRNTMGWYRQAPGKEREFVASITFSGGSTNYADSVKGRFTISRDNAKNTVYLQMNSLKPEDTAVYYCAARDYHYSTYDYWGQGTQVTVSS | low polyreactivity
38 | QVQIVESGAVIVQAGGSLRLSCAASGSTFGSYTMGWYRQAPGKERELVASISRDGRTKYADSVKGRFTISRDNATNTVYLQMKSLKPEDTAVYYCANSKWRGRGGTYDYWGQVTQVTVSS | high polyreactivity
39 | QVQLVESGGGLVQAGGSLRLSCAASGSILGYYAMGWYRQAPGKERELVAAITWRGGRTYYADSVKGRFTISRDNAMNTVYLQMNSLKPEDTAVYYCAKVPSGYKGYDYWGQGTQVTVSS | high polyreactivity
40 | QVQLEESGGGLVQAGGRLRLSCAASGNTFQVYAMGWSRQASGTERELVATITSGGSTNYADSVKGRFTISRDNAKNTVYLQMNSQIPDDTAVYYCARRAVYSKRRYDYWGQGTQVTVSS | low polyreactivity
41 | QVQLVESGGGLVQAGGSLRLSCAASGFTFRKYAMGWYRQAPGKERELVASITSGGSTYYADSVKGRFTISRDNAKNTVYLQMNSLKPEDTAVYYCNAVKATLASGRLRGAYYYWGQGTQVTVSS | high polyreactivity
42 | QVQLVESGGGLVQAGGSLRLSCAASGSIFGYNVMGWYRQAPGKERELVAGITSGGSTNYADSVKGRFTISRDNAKNTVYVQMNSLKPEDTAVYYCNAEGVFGDGRSGFYWYDYWGQGTQVTVSS | low polyreactivity
43 | QVQLVESGGGLVQAGGSLRLSCAASGRNFDKYTMGWYRQAPGKERELVAAISKSGSGTFYADSVKGRFTISRDNAKNTVYLQMNRLKPEDTAVYYCARVYTVGTGRSWRLDYWGQGTQVTVSS | high polyreactivity
